Measurements from patent EP3653708A1, “ISOMALTULOSE PRODUCTION” (Evonik Operations GmbH, priority 2018, dated 2020).

Assays:
[1] = target: Serratia plymuthica sucrose isomerase SmuA variant SmuA(Q181P/D398G/F453Y) (Serratia plymuthica, UniProt D0VX20, D383G/F438Y/Q166P/V450E); assay: Michaelis-Menten kinetics of the conversion of sucrose into isomaltulose (HPLC, initial velocities); assay type: biochemical; details: 25 mM calcium acetate pH 5.5, 20 °C, 74.7 nM enzyme, 50-400 mM sucrose
Method: (§1) The enzyme activity assay was carried out in 25 mM calcium acetate pH 5.5 in the presence of 1.16 M sucrose (Sigma-Aldrich, St. Louis, MO) for 16 h at 20 °C.
(§2) The reaction mixture was composed as follows:
(§3) The enzymatic product composition was determined on an Agilent 1200 HPLC instrument (Agilent Technologies, Santa Clara, United States of America) equipped with a Smart line refractive index detector 2300 (Knauer, Berlin, Germany). The sample solution was applied on an XBridge amide column (particle size: 5.0 µm, inner diameter: 4.6, length: 250 mm); (Waters, Milford, MA) at a flow rate of 2 mL/min using a running buffer of 57.8 % acetonitrile, 26.1 % acetone and 16.1 % H2O.
The Michaelis constant (KM), the turnover number (kcat) and the catalytic efficiency (kcat/KM) were determined for isomaltulose. […] To determine the initial velocities at these sucrose concentrations, the isomaltulose yield was analysed via HPLC and plotted against the respective sucrose concentration. […]
Figure 1 illustrates analysis of the enzyme kinetics and the product spectrum of mutant SmuA. […] The initial velocities for the production of isomaltulose were measured by HPLC at sucrose concentrations of 50 mM, 100 mM, 150 mM, 200 mM, 300 mM, and 400 mM. […]

[2] = tested on: OC[C@H]1O[C@@](CO)(O[C@H]2O[C@H](CO)[C@@H](O)[C@H](O)[C@H]2O)[C@@H](O)[C@@H]1O; assay: as above; assay type: biochemical, Serratia plymuthica; details: 25 mM calcium acetate pH 5.5, 20 °C, 74.7 nM enzyme, 50-400 mM sucrose
Method: as §1, §2, §3
The Michaelis constant (KM), the turnover number (kcat) and the catalytic efficiency (kcat/KM) were determined for isomaltulose. To this end, the enzymatic reaction was carried out as described above at sucrose concentrations of 50 mM, 100 mM, 150 mM, 200 mM, 300 mM and 400 mM and stopped after 10 min, 20 min, 30 min and 40 min by heating the sample at 95 °C for 10 min. To determine the initial velocities at these sucrose concentrations, the isomaltulose yield was analysed via HPLC and plotted against the […]. The slope of the subsequent linear regression corresponded to the initial velocity.
Figure 1 illustrates analysis of the enzyme kinetics and the product spectrum of mutant SmuA. […] The initial velocities for the production of isomaltulose were measured by HPLC at sucrose concentrations of 50 mM, 100 mM, 150 mM, 200 mM, 300 mM, and 400 mM. The enzyme activity assay was carried out in 25 mM calcium acetate buffer pH 5.5 at 20 °C and 74.7 nM of the enzyme. […] Chromatographic conditions: XBridge amide column (particle size: 5.0 µm, inner diameter: 4.6, length: 250 mm); flow rate: 2 mL/min; injection volume: 20 µL; running buffer: 57.8 % acetonitrile, 26.1 % acetone, 16.1 % H2O. Detection via Smartline refractive index detector 2300. The enzyme activity assay was carried out in 25 mM calcium acetate buffer pH 5.5 in the presence of 1.16 M sucrose and 74.4 nM of the recombinant wild type enzyme for 16 h at 20 °C. Table 1: Composition of the isomerization products from sucrose by engineered SmuA variants.

[3] = other: SmuA(Y219L/T369F/D398G/F453Y)

With `OC[C@H]1O[C@@](CO)(O[C@H]2O[C@H](CO)[C@@H](O)[C@H](O)[C@H]2O)[C@@H](O)[C@@H]1O` [sucrose] the kcat [1] was 122.88 s⁻¹.
Work on “Serratia plymuthica sucrose isomerase SmuA variant SmuA(Y219L) (Serratia plymuthica; V450E/Y204L)” yielded a Km ([2]; other: SmuA(Y219L)) of 86.64 mM, a kcat ([2]; other: SmuA(Y219L)) of 665.77 s⁻¹ and a kcat/Km ([2]; other: SmuA(Y219L)) of 7680 M⁻¹ s⁻¹.
In the case of “Serratia plymuthica sucrose isomerase SmuA variant SmuA(Y219L/D398G) (Serratia plymuthica; D383G/V450E/Y204L)”, the Km ([2]; other: SmuA(Y219L/D398G)) is reported as 60.16 mM, the kcat ([2]; other: SmuA(Y219L/D398G)) is reported as 708.22 s⁻¹ and the kcat/Km ([2]; other: SmuA(Y219L/D398G)) is reported as 11770 M⁻¹ s⁻¹.
For “Serratia plymuthica sucrose isomerase SmuA variant SmuA(Y219L/T369F/D398G/F453Y) (Serratia plymuthica; D383G/F438Y/T354F/V450E/Y204L)”, the Km [2, 3] was 58.16 mM, the kcat [2, 3] was 201.07 s⁻¹ and the kcat/Km [2, 3] was 3460 M⁻¹ s⁻¹.
Work on “Serratia plymuthica sucrose isomerase SmuA, used as wildtype SmuA (UniProt D0VX20 with point mutation V465E, SEQ ID NO:3) (Serratia plymuthica; V450E)” yielded a Km ([2]; other: SmuA) of 55.25 mM, a kcat ([2]; other: SmuA) of 965.15 s⁻¹ and a kcat/Km ([2]; other: SmuA) of 17470 M⁻¹ s⁻¹.
